Data on four substances can be found in FireProtDB (doi:10.1021/acs.biochem.6b01187).

For this data set the following is noted: Equus caballus, CD; for denaturant m value / denaturant midpoint (higher = more stable) / unfolding free energy: 22 °C, GdnHCl; for Tm / unfolding enthalpy (calorimetric) / change of melting temperature, mutant - wild type (higher = more stable): Thermal, transition: 2, reversible: yes (>83%).
Setting [1] is: pH 4.5, sodium acetate buffer 10 mM, NaCl 100 mM.
Setting [2] is: pH 7.4, sodium phosphate buffer 100 mM.
[3] abbreviates: pH 4.5, sodium acetate buffer 10 mM, NaCl 100 mM, structure 1HRC.
Setting [4] is: pH 7.4, sodium phosphate buffer 100 mM, structure 1HRC.

Sequence of Cytochrome c M81A, P00004 (P00004 whole entry M81A): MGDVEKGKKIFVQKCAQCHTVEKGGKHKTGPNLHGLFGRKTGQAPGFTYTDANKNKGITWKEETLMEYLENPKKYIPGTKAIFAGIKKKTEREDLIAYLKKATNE
Sequence of Cytochrome c T50V, P00004 (P00004 whole entry T50V): as the sequence (P00004 whole entry M81A) above, with T50V, A81M counted along it
Sequence of Cytochrome c Y68R|M81A, P00004 Y68R M81A (P00004 whole entry Y68R/M81A): as the sequence (P00004 whole entry M81A) above, with Y68R counted along it
Sequence of Cytochrome c wild type, P00004 (P00004 whole entry): as the sequence (P00004 whole entry M81A) above, with A81M counted along it

Turning to Cytochrome c wild type, P00004, under setting [1], the denaturant m value is 2.34 kcal/mol/M; the “denaturant midpoint (higher = more stable)” value (from here on “denaturant midpoint”) amounted to 2.6 M; the unfolding free energy worked out at 6 kcal/mol; the melting temperature (Tm) (as a rule, the temperature at which the thermal transition is half complete) was 71 °C. Also, the “unfolding enthalpy (calorimetric)” value under setting [1] is 49 kcal/mol. Besides, under setting [2], the denaturant m value worked out at 2.75 kcal/mol/M, the “denaturant midpoint” value was 2.7 M, the unfolding free energy came to 7.43 kcal/mol and the Tm amounted to 84.1 °C. Besides, under setting [2], the “unfolding enthalpy (calorimetric)” value worked out at 86 kcal/mol.

In the case of Cytochrome c T50V, P00004, under setting [3], the denaturant m value came out at 1.6 kcal/mol/M, the “denaturant midpoint” value was 2.5 M, the unfolding free energy worked out at 3.99 kcal/mol and the melting temperature (Tm) came out at 72 °C. Also, under setting [3], the “change of melting temperature, mutant - wild type (higher = more stable)” value (from here on “change of melting temperature, mutant”) was determined as 1 °C and the “unfolding enthalpy (calorimetric)” value turned out to be 82.5 kcal/mol. Besides, under setting [4], the denaturant m value was determined as 2.68 kcal/mol/M, the “denaturant midpoint” value was determined as 2.7 M, the unfolding free energy stood at 7.22 kcal/mol and the melting temperature (Tm) was determined as 86 °C. In addition, under setting [4], the “change of melting temperature, mutant” value came out at 1.9 °C and the “unfolding enthalpy (calorimetric)” value worked out at 83.9 kcal/mol.

Consider “Cytochrome c Y68R|M81A, P00004 Y68R M81A”, for which, under setting [3], the denaturant m value came out at 2.29 kcal/mol/M, the “denaturant midpoint” value came to 1.4 M, the unfolding free energy was 3.2 kcal/mol and the midpoint of thermal melting (Tm) came out at 55 °C. Further, under setting [3], the “change of melting temperature, mutant” value was -16 °C and the “unfolding enthalpy (calorimetric)” value was found to be 78.4 kcal/mol. Besides, under setting [4], the denaturant m value turned out to be 2.46 kcal/mol/M, the “denaturant midpoint” value was determined as 1.7 M, the unfolding free energy was 4.18 kcal/mol and the Tm stood at 71 °C. Also, under setting [4], the “change of melting temperature, mutant” value is -13.1 °C and the “unfolding enthalpy (calorimetric)” value was 82.2 kcal/mol.

In the case of Cytochrome c M81A, P00004, under setting [3], the denaturant m value was 2.77 kcal/mol/M, the “denaturant midpoint” value was determined as 2.6 M, the unfolding free energy is 2.77 kcal/mol and the Tm came to 76 °C. Besides, under setting [3], the “change of melting temperature, mutant” value worked out at 5 °C and the “unfolding enthalpy (calorimetric)” value was 83.4 kcal/mol. Further, under setting [4], the denaturant m value is 2.46 kcal/mol/M, the “denaturant midpoint” value came to 2.71 M, the unfolding free energy came out at 6.67 kcal/mol and the Tm came out at 84 °C. Further, under setting [4], the “change of melting temperature, mutant” value is -0.1 °C and the “unfolding enthalpy (calorimetric)” value came out at 85.3 kcal/mol.
